{"source": "a protein production outcome set (Wang et al. 2014)", "data": [{"assay": "label from the status in PepcDB records", "values": [{"sequence": "MTQLFPGPIVRTPGLAELDARARDIFRRVVESYLETGEPVGSRTISKGGVALSPASIRNTMQDLAQLGLLDAPHTSAGRMPTHAGLRMFVDGFLEVGDVAEQEKRAIEARLAVKGRSFEEALAEASSILSGLAGGAGIVVTPVREGGVKHVEFVPLGGGQVLAVMVFEDGQVENRLMRQAPGVTPSALQEASNFLNARLRGRTLTEARTEMGGELDAARRQLNETAARLVEDGLAAWSGGEGDARSLIVRGQANLLADARAREDIDRVRQLFDDLSRRAQLIGLLDDVRDAEGVRIYIGAETRLFSLSGSSVIAAPYMTGRQKVLGAIGVIGPARLNYARVIPLVDYTARVLGRMMDG", "protein production": "failed"}, {"sequence": "MTQLIKSLPGWLKLMLIFPIFFLNGVLLSLIINRFRELFDYIIIATLVTFLLKLTINFLVSKGIGKRLAIFAVITISFALIALGGITLIPLMGNQLGNLSQDIPRWLSGSQEHLANLKNSTLFLTLDNAGVNVDDLFQKAYLTLSKELDRIGQISLKVLTETIGGVVDTLVILVLTIFLLVGGDTFWQGILSWLPSPWEKKIPQYAGEIFRDYFISRLILAAGSSMARLVVFMALGIPYSILFAFSLGLASLIPFAGAVVTLIGTLVLLLKGWVVAVKFFVSAIVIDQITDNGVAPKLMGDKIGLNPVWILISIFIGAEIAGLLGVLLAVPIASVIKKVIDDMRAGKTENEEIDTEEQVEVLPESLA", "protein production": "failed"}, {"sequence": "MTQNNILLISGAILPVIITVIIGYISGKRKDFNWQQAGDINKIVMLYALPLSIFSNMVMTPRHIVMTMGPVAVAIILALILSFVIPLLVARYLFRRDLALSTLQALAIGSPAVPFIGTSVLAFLFGTVSASLITVSSITQNVFQLPLVMILMSVATGDKSQHISFGARVVNAIKQPVVWSPVIALIIVLADIHIPQTISMSLGLLGKASGGLALFAAGIVLYTRSIVITTATIITVIARNILVPGACYLILLKMGFSMEQIKEVVLTMAIPVGSIAIIIAMQYKTGEQEMASTMALSIIASIITMGGFIFLTF", "protein production": "failed"}, {"sequence": "MTQQLNHAKVNQHPGQATLPETAEGQVRTYEVKTYGCQMNVHDSERLSGLLEEAGYVAAPEDTTPDLVVFNTCAVRENADMRLYGTLGNLRSVKEKNPGMQIAVGGCLAQKDKDTVVKKAPWVDVVFGTHNIGSLPTLLQRAEHNAQAEVEIVDSLEQFPSVLSAKRESAYAGWVSVSVGCNNTCTFCIVPSLRGKEQDRRPGDILAEVQALVDQGVTEVTLLGQNVNAYGVNFVDPELERDRSAFSKLLRACGEIEGLERVRFTSPHPAEFTSDVIDAMAETPNICPQLHMPLQSGSDKVLKEMRRSYRSKKFLSILDEVRAKIPHASITTDIIVGFPGETEEDFQATLDVVKKARFTSAYTFQYSPRPGTPAAEYENQLPKEVVQERYERLMVVQEQVCEEENQKLIGTTVELLVQAGGGRKNDATKRMSGRARDGRLVHFAPEGDIDGEIRPGDFVTVTVTEAKPFFLIADSGVQTHRRTKAGDNSAVGQVPTTAPIGVGLGLPQIGAPKVAPATESACCSIN", "protein production": "failed"}, {"sequence": "MTQRSLADIQFQTTLEGVTPAQLGGFFEGWPNPPTPETLWRILDRAAVFVLARTPDGQVIGFVNALSDGILAASIPLLEVQAGWRSLGLGSELMRRVLTELGDLYMVDLSCDDDVVPFYERLGLKRANAMFLRRYDNQAGIPAE", "protein production": "not failed"}, {"sequence": "MTQRTAFTLTVSPKIPARLSRLEELSNNLWYSWDRATRALFSRLDQQLWEAVGHSPKAFLRRVDESLLLQAAEDLTFLSHYNSVLSAYDSYHSEPSRYQAINGIEARDQVAYFCFEFGFHESLPVYSGGLGILAGDHCKAASDLCLPFVAVGLLYRQGYFFQTIDGQGNQQPVFCDSDFEDLPVKPALHDDGSEVRISVRFPGRVVTVKVWRAQIGHVGLYLLDTDLPDNSEYDRLITHQLYGGNKTMRIEQEIILGVGGVAALRAMGIKPTIWHSNEGHAAFMMLTRALELVRQGLDFASATEAVAVNTIFTTHTAVPAGHDHFPEDMMHRYFEDFYHELKISREEFMALGHTPGNHDFNMTALAIRMSRMHNGVSRIHRDVSANICHDMWPQIEPEENPIDYVTNGVHVPTFLAQEWTDLFDRRLGSQWRSKQHAPEFWSRIHDIPDHIFWSVRQSLKSQMFYGIRARLTEQNLRNHGSEAHLERLLRFVDPINPNILTLGFARRFATYKRATLLFQDLDWLRKLLLDAARPILLIFAGKAHPADLPGQALIRHIHQVADMPEFRGRILLVEGYDLRLARRLVSGVDVWLNNPIYPLEASGTSGMKAGINGTLNLSILDGWWGEGYDGKNGWGIKPVSENMEDSLRDAEESRAFYEILQDQVIPLYYDHSKFGYSADWVRMAKNSMVSLLPRYGTGRMVGEYVQKFYAPASRQGTGYSQDNFAIARSIAAWKARINAAWDGVSVRRLDTPGKQLEFGSTMHFKLAVKLNGLQPEDVVVELLLSRQYNKTRLSQFKHFRLECTGPLGSHEHQFELNHVPELCGRQQYYLRIYPYHPLLTHPLEMGKMVWLLEHHHHHH", "protein production": "failed"}, {"sequence": "MTQSPYWQRIAAKAQAAQRPFFSLAPMEAVTGSVFRRVVMRAAAPDVFYTEFTNALSITHPKAKFTTRGRLYVDEAESPRPIVQLWGNSGEDFTKAAHEVKNQGYQAIDLNMGCPDMAVIKNHSGSDLIRHFDRAKEVIEGARQAELPVSVKTRLGFDDVHEYETWIPFLLQQQVPVLTVHVRTKMEMSKVPAHYELIDNLVQMRDTLAPATLLQINGDILDYQAGLKLAKAHPGVDGIMIGRGIFQNPYAFEPIPQPHSTRDMLELLRYQVDLYDQFIGLGLQGHFAPLQRFFKIYVRGMRHAAELRNELMQTKTTDDVRAIIDRLEAKLPAD", "protein production": "failed"}, {"sequence": "MTRAPPRRCTSPMTPTAPSPLVWRDDGLPQSSLYGDVYFSSVDGLAETRAVFLAGCGLPERFAERRDFVVGELGFGSGLNIAALLDLWRREKPPGGRLHIFSIEAHPLSRDEAARILAHWPELGEAAQVLLDHWPGRARGFHRVDLPGFDAVLDLAVMDVVEALEAWDGLADAWFLDGFSPALNPAMWRDEVLAAVGARSAPGARAATFTVAGAVRRGLSAAGFEIAKRPGFGRKRERLEAWRPGVRPVAQRPETLAIIGGGIAGAALARAARAAGLEVTVIDDADAVAASGNPAALVTPALDAGGGPRAALYAQALSRAVTLYEAQPDAVLAREVLQLAAGERDPARFATVADQDLFEPGDMRTLEAEDTRARLETPTPALAMAGARVIAPAEVTAAWAGPVVRRRVAKAERDGEGWRLLDAAGEIIARADRLALAGGAAGADLLAEAPLRPVRGQASWTRGHGAPATAFGGYAIPTREGLLFGATHDRDDTQTNVRSEDHARNLATLAKGLPALAARLAGSTFEGRAAIRATTPDRLPLADLREDGVIVLTGLGSRGFCLAPLLAEHLVARLLDVPSPLPRQLSHLLKLTRFDSPVTRSRL", "protein production": "failed"}, {"sequence": "MTRASLDKQPHEVASMFDDVAERYDLTNDLLSLGQDRVWRREVAKAVDARPAQKILDLAAGTATSSLPFARAGAYVVPCDFSLGMLRVGKKNHPWLPLTAGDATKLPFKDDTFDAVTISFGLRNVQDTDTALSELYRVTKPGGRVVICEFSHPTWAPFRTVYTEYLMRALPPVARAVSSNPDAYVYLAESIRAWPTQPELAERLRKAGWSKVAWRNLTGGVVALHRGFKAV", "protein production": "failed"}, {"sequence": "MTREMARLLISPSNAWPRLRQDYDHHPFAFLVPLLLLPLLPAACLFIGTTQVGWSLPGNDSVQHLSSGSALLLATMCYLGFVAGVVIMGLFVRWVLFRTPSRPSVPGSLTFTTAIAVPLMLAGIVALVPWRILLLLAAAAACAYSVRLLFTGLPLFMRMQERQTLFYAFCILGVGFLTLLTTAFIFIELWGQSLAGSGEYLR", "protein production": "failed"}, {"sequence": "MTRFWTRLIVVLTVILGVNYVAWRWMASLNWEAWWIAVPLVIAETYSLIDVMLFGLTVWNIKFRKPPPPPPADATVDVFITTYNEPLDLVMTTALAAKEIRWPHSTWILDDGDRPEMRELAESNGIGYVTRGADWTPDMPRHAKAGNLNNALMLTSGEYLLILDADQIPEPDILDKTLGYFNDDKVALVQTPQYFINVPADDPLGSQAPLFYGPIQQGKDGWNAAFFCGSNAILRREALMQLGLVGYVKATEKSVRRALAASRTAIRKARRSPEAENPLVEQMLNEVEAATESAQKELEAGASLSEITYRVRRQVDDAVRTLVAADFSALQSDLEEIAAMELAHVGESGVTTVATDAVDRMSGRDWSPLGALESVHAVLDAISVERTDEAQPIMPLATISVTEDMATAMRLHGLGWKSVYHHEILANGLAPEDVKTMLTQRLRWAQGTMQVLLRENPLVQRRLTWGQRLMYFSTMWTYLSGFAAVVYFAAPIIYLTLGILPVNSISSDFFIRFIPFMVVNQLLFLVAGHGIPTWRGQQYSLALFPTWIKACTTAARNVWFGRPLGFAVTPKARQSGGPSWSLIRPQIIVAVLLAVALIVGLIRLLAGMSEPLGTLVNVAWVAFDLVVLSVLVKAVLYKGFVPEVVGPERPEERNADAV", "protein production": "failed"}, {"sequence": "MTRLRGTLSVCIDAFPAWTRPLALAFVVYALSFGMRMLEYPAWQNPEYMLDGEYLLATHDAYHWIAGAEGFEFGAGHPMSELVRLAAAFTGTTPAAVGFWLPPVMASLVAVGVFGWAAALGGVEAGVCAGVLASLAPGFLARTLLGYCDTDLVTLLFPLLMGLGPAFWMARFMFTPLQVARRLLARRTGTSDVVPDAVAVMMTSRGEADDDWHGGALSPRWLALLAGSGLVGSWGAEWHSLFPYLIRYDVVLLFGCICVFGRPGMRRALLVGGLAYALPMLVGAWGLLFALALGWGLHRADARFMAFVRGRALPVAGWCAVAVLLFDPDVFRMFLNSIAGYVKRSGDPSPGAGGDDPLVYPSVAQSIIEVQDLSLSEVLSYFHPWLWVALAGLGGFVPLLLARPAAFFLLPLGVLSFLSVKLGGRMVMFGAPVLALGFALPMVWGVQRVLRHDLRTGWVRLALSAVLLVIVATPFVDLLPAMTQGPIINKRHAEALRHIRTATPEDSMVWIWWDWGYSAHHFAHRRTIADGASHGGPSLYVPAAVFSTANPRFAWQLIRYTAERGGIPGSVFEGMGGAQAQELVHRLGIEKMTFADAPRQYLVVSYDMLRLGFWITNFGTWDFLSREGKGYAISSIPQQLSYSLDTGEVQVQGNTTGVLASTIDVFDEGQLERRDYIVRQGGSGNAIADYAARQRNIESRRNIHFLFNKVTGEKLVLDDRLYNTVMVQLLLCSPDDTRFAPYFKLIYDNVYARVYEVR", "protein production": "failed"}, {"sequence": "MTRNGHERAKPLRPGDPTELGAYRIVGRLGRGGMGTVYLGKDTAERLVAIKLIRPDLSEDPAFRQRFAREVAAARRVARFSTAAVLDAQLEGDPLFIVSEYVAGPNLAEAIQADGPMYGGTLESLAMGVAAALTAIHGAGVIHRDLKPANVLLSSVGPKVIDFGIARALDDDTAVTRSSQLMGTPAYLAPELIAGEPPTPMSDIFSWGCLVAYAGTGRAPFDAPTVPAVLHQIVAGQPNLSGLDPALRELVESALDKFPDNRPTAQQLLSRLVGQEEMSLDAVHETVVRSWTPPATSRPEAVPSGPNPAAVPAQVGAAAAAPPTQPGTTPPGGQPSATPSAGHPGATPPAGQPAAAPPFPEHSPQTPPWAAPTPPGGNGTEQKTRGTRFSPAIAIAGGSAVALLAGAVIGGLVLFRSPEVPEGMQVYADDFTHQDGWAGYDFDPENTFSWSGYYQGGYALSADGDTRTSTVSVAPPAGLPEQVRVSATTQVVSGPDYGTYGLHCFYNDDGDNVTYYSATVRVDGSAAQIRRHGGEQGSTHLEEVTAKPVSGFLTPSRDAEEAPVNTFDFTCELDPEADTVTLNLWLNGEHVLEAVDTNPLPYDGEDAPQAGMLAGRGIGGGDNIVVVFDDFAVYQLDGGQRERS", "protein production": "failed"}, {"sequence": "MTRPEASGPPDATRLGHLLGPHGVQGGIKLYVLGDPAQVLALKRVYVESRGWLSLRRAEGMPPNLVLYLAGVSSREGAEELRGLQVYATDAELPDLEEGTFYYHDLRGLEVYGAGGERLGTVSDVMDAGHQDLLVVDYGGGTSFVPLQAPYVEVPLAGGKPGAVHLTADAPAGLIGPEPGEEDGAAESLEHHHHHH", "protein production": "not failed"}]}]}
